18 sequences from the supplement of paper PMC12764529 can be followed below.

Series [1] is described as follows: folding stability dG unfold from trypsin proteolysis; higher = more stable. The procedure, abridged:
(§1)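 Digests were run with trypsin and chymotrypsin at 11 concentrations in threefold dilutions, plus a no-protease condition, on designed mini-proteins in a PA-tagged cDNA display construct. The mini-proteins were under 80 residues, had no cysteine, and were kept only when AlphaFold2 dimer inter-PAE was above 15. After sequencing, Bayesian fitting of the counts gave K50, from which unfolding free energy was derived against a sequence-predicted unfolded-state K50 and a shared folded-state K50, per protease or combined.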

The nature of series [2]: folding stability dG unfold from chymotrypsin proteolysis; higher = more stable. The procedure, abridged: as §1
A short description of series [3]: folding stability dG unfold (combined trypsin and chymotrypsin); higher = more stable. The procedure, abridged: as §1

± gives the half width of the 95% confidence interval.

On to “SAGGSAGGSAGGKYKILKIEKYKLPNGGYYYKALVYEEENGEWKEIYAKANSAKNFKFESAGGSAGGSAGGS [r10_326_TrMRF]”, for which the “folding stability dG unfold” value in series [1] amounted to 0.828 ± 0.049 kcal/mol; in series [2], 1.16 ± 0.11 kcal/mol; in series [3] it was 1.08 ± 0.1 kcal/mol.
With “SAGGSAGGSAGGLEIELPNARIRIEELEGEPRRIRVRVEFFPPDGGRLSAEAEFDILPDLSAGGSAGGSAGG [r17_184_TrMRF]”, the “folding stability dG unfold” value in series [1] stood at 2.66 ± 0.056 kcal/mol; in series [2], 2.5 ± 0.08 kcal/mol; in series [3], 2.57 ± 0.092 kcal/mol.
Taken in the same sequence, the figures for “SAGGSAGGSAGGLEKLVELLAPGKPLEVLRIDPTPTYVRIVVRHPDYPVDTVILADPDVISAGGSAGGSAGG [r7_303_TrMRF]” were 0.237 ± 0.046 kcal/mol, -0.617 ± 0.11 kcal/mol and -0.0768 ± 0.051 kcal/mol.
In the same order, the values of “SAGGSAGGSAGGLLEELKAKGYTVLSTPVPSPPDGVPTRTVLAKKGEGTVTFVVPAALLSAGGSAGGSAGGS [r10_35_JUSTAS]” are -0.172 ± 0.18 kcal/mol, 0.525 ± 0.17 kcal/mol and 0.287 ± 0.23 kcal/mol.
Taken in the same sequence, the figures for “SAGGSAGGSAGGLPEGWVLKTETKTVKLKVKVKVDGKEYEFEVEVKVTRIELVPKEELESAGGSAGGSAGGS [r10_300_TrROS_Hall]” were 3.04 ± 0.23 kcal/mol, 4.08 ± 0.2 kcal/mol and 3.76 ± 0.11 kcal/mol.
On to “SAGGSAGGSAGGLPKPVTVTLSRPEGGETLTLTFPSGTTPEEVRAAVEAEPDLSILSISSSAGGSAGGSAGG [r7_624_JUSTAS]”, for which the “folding stability dG unfold” value in series [1] is 1.2 ± 0.074 kcal/mol; in series [2], 0.892 ± 0.063 kcal/mol; in series [3], 1.1 ± 0.059 kcal/mol.
Taken in the same sequence, the figures for “SAGGSAGGSAGGLPPFDLGFESVEVEEVFPDGPVVVTVRLPDRTVRLVVVGGRIVRVEPSSAGGSAGGSAGG [r17_396_TrMRF]” were 1.68 ± 0.036 kcal/mol, 1.97 ± 0.048 kcal/mol and 1.75 ± 0.085 kcal/mol.
With “SAGGSAGGSAGGLRAKIVEIKEVKVKKLYKDPETNEWYEEEKTVKVIKIKIEPAKPGEKISAGGSAGGSAGG [r17_530_TrROS_Hall]”, the “folding stability dG unfold” value in series [1] was 0.537 ± 0.08 kcal/mol; in series [2], 1.14 ± 0.044 kcal/mol; in series [3], 0.947 ± 0.13 kcal/mol.
In the same order, the values of “SAGGSAGGSAGGLSPGDEIKIRIMIFYRDPGSGNMRPIQPFPITIKIEPPPPKPKDPNNNSAGGSAGGSAGG [r7_522_TrROS]” are 2.27 ± 0.1 kcal/mol, 3.82 ± 0.085 kcal/mol and 3.08 ± 0.12 kcal/mol.
On to “SAGGSAGGSAGGLTFRLPDGTRVRVRVELNEDGELRITVEVEPLPPPPPKVEFYSEEELKSAGGSAGGSAGG [r7_660_TrROS_Hall]”, for which the “folding stability dG unfold” value in series [1] stood at 2.72 ± 0.076 kcal/mol; in series [2] it was 3.06 ± 0.08 kcal/mol; in series [3], 2.92 ± 0.12 kcal/mol.
As to “SAGGSAGGSAGGLWLTFNFRLTFFNPDGQAMEIEIPIEIRIPPPPVTVPDPDGEEYKYDSAGGSAGGSAGGS [r10_330_TrROS]”, the “folding stability dG unfold” value in series [1] was 2.39 ± 0.07 kcal/mol; in series [2], 3 ± 0.069 kcal/mol; in series [3], 2.87 ± 0.18 kcal/mol.
As for “SAGGSAGGSAGGMAENLSPEQLRELAKELGLSEEDLEPGQVVRFRLPNGEVIEVRVEDESAGGSAGGSAGGS [r10_623_TrROS_Hall]”, the “folding stability dG unfold” value in series [1] was 1.29 ± 0.033 kcal/mol; in series [2], 0.372 ± 0.13 kcal/mol; in series [3], 0.913 ± 0.067 kcal/mol.
Regarding “SAGGSAGGSAGGMEKLSETVTETVEVTLTSGDKTYTFTVTTTTVVLPDGTVETLEVTLQPSAGGSAGGSAGG [r11_95_JUSTAS]”, the “folding stability dG unfold” value in series [1] was 2.05 ± 0.1 kcal/mol; in series [2], 3.42 ± 0.12 kcal/mol; in series [3], 2.81 ± 0.14 kcal/mol.
For “SAGGSAGGSAGGMEVYRNPETGTLVFLFELEDGSYVAVTINPDGSVEVRVFDKDGRWVPSAGGSAGGSAGGS [r10_299_TrROS_Hall]”, the “folding stability dG unfold” value in series [1] was 2.61 ± 0.064 kcal/mol; in series [2] it was 3.507 ± 0.027 kcal/mol; in series [3], 3.03 ± 0.081 kcal/mol.
As to “SAGGSAGGSAGGMGPPPIETIVIEKPLSEEEYEALKKAYPDKKVTVSEIPGTPNKIATIESAGGSAGGSAGG [r17_254_JUSTAS]”, the “folding stability dG unfold” value in series [1] is 0.363 ± 0.042 kcal/mol; in series [2], -0.192 ± 0.098 kcal/mol; in series [3], 0.0243 ± 0.19 kcal/mol.
In the case of “SAGGSAGGSAGGMIAVLTYKDGTVRDFGPTASLEEILSIPADEIVRIEVRPVLPELGDLLSAGGSAGGSAGG [r7_190_TrMRF]”, the “folding stability dG unfold” value was 0.59 ± 0.018 kcal/mol in series [1], -0.859 ± 0.31 kcal/mol in series [2] and 0.251 ± 0.07 kcal/mol in series [3].
In the case of “SAGGSAGGSAGGMIIIIPTPKGTVALVIDENSDKPTLIEASPDEIPDLIEKGAKEVIILPSAGGSAGGSAGG [r7_266_TrMRF]”, the “folding stability dG unfold” value came out at 0.363 ± 0.072 kcal/mol in series [1], 1.22 ± 0.052 kcal/mol in series [2] and 0.932 ± 0.13 kcal/mol in series [3].
As to “SAGGSAGGSAGGMIIKINGKYYKIKKIEKNPNGKYTITTENGKKYEFKNVKIFSEEELKSAGGSAGGSAGGS [r10_1151_TrROS_Hall]”, the “folding stability dG unfold” value in series [1] worked out at 3.05 ± 0.18 kcal/mol; in series [2], 4.19 ± 0.061 kcal/mol; in series [3], 3.86 ± 0.18 kcal/mol.
